From patent US7056701

Target: formaldehyde-fixed human platelets
Test: inhibition of vWF/botrocetin-induced agglutination of fixed human platelets

Row | IC50 [nM] | Substance
1 | < 10 | HSA-vWF 470-704 C471,474→G
2 | 20 | HSA-vWF 470-713 C471,474→G
